Results as given in paper PMC4119023.

Tests used:
[1] = substrate: Cc1cc(=O)oc2c(F)c(OP(=O)(O)O)c(F)cc12; assay: steady-state phosphatase assay; format: biochemical, Kluyveromyces lactis; settings: 50 mM MES pH 5.5, 30 °C, 10 μM enzyme
[2] = substrate: Cc1cc(=O)oc2c(F)c(OP(=O)(O)O)c(F)cc12; assay: steady-state phosphatase assay; format: biochemical, Homo sapiens; settings: 50 mM MES pH 5.5, 30 °C, 10 μM enzyme

B1: KlRtr1 FL (Kluyveromyces lactis NRRL Y-1140) (protein)
chain: MATIEEIKEVVLKPYTNHRQLTIREVETISINLIDLLITKDVKDARTMKYISRFLTKQDYADLVQERNLVKRCGYPLCSKSQARVRDPFADVQMTNFLRQNNPYAYLTEYCTKAHFRCSQFYQFQLSDEALFARVGVHLDDYEPPSEIQLLEEVLARESDVKQMIRGMTDLKLADDDSREEMERDISDMLADIKIVEINEPNIIGDLGRDR
Km ([1]; EDTA-treated enzyme): 587 ± 70 µM
kcat ([1]; EDTA-treated enzyme): 0.001 ± 3e-05 s⁻¹

B2: KlRtr1 FL (Kluyveromyces lactis NRRL Y-1140; E197Q) (protein)
chain: MATIEEIKEVVLKPYTNHRQLTIREVETISINLIDLLITKDVKDARTMKYISRFLTKQDYADLVQERNLVKRCGYPLCSKSQARVRDPFADVQMTNFLRQNNPYAYLTEYCTKAHFRCSQFYQFQLSDEALFARVGVHLDDYEPPSEIQLLEEVLARESDVKQMIRGMTDLKLADDDSREEMERDISDMLADIKIVQINEPNIIGDLGRDR
Km ([1]; EDTA-treated enzyme): 529 ± 45 µM
kcat ([1]; EDTA-treated enzyme): 0.0016 ± 4e-05 s⁻¹

B3: KlRtr1 NTD (Kluyveromyces lactis NRRL Y-1140) (protein)
chain: MATIEEIKEVVLKPYTNHRQLTIREVETISINLIDLLITKDVKDARTMKYISRFLTKQDYADLVQERNLVKRCGYPLCSKSQARVRDPFADVQMTNFLRQNNPYAYLTEYCTKAHFRCSQFYQFQLSDEALFARVGVHLDDYEPPSEIQLLEEVLA
Km [1]: 694 ± 74 µM
kcat [1]: 0.0015 ± 5e-05 s⁻¹

B4: hRPAP2 NTD (Homo sapiens) (protein)
chain: MADFAGPSSAGRKAGAPRCSRKAAGTKQTSTLKQEDASKRKAELEAAVRKKIEFERKALHIVEQLLEENITEEFLMECGRFITPAHYSDVVDERSIVKLCGYPLCQKKLGIVPKQKYKISTKTNKVYDITERKSFCSNFCYQASKFFEAQIPKTPVWVREEERHPDFQLLKEEQSGHSGEEVQLCSKAI
Km [2]: 1668 ± 205 µM
kcat [2]: 0.0005 ± 3e-05 s⁻¹
